These results are taken from the supplement of paper PMC12042874.

The series is described as follows: amyloid nucleation score (Sup35N fusion, yeast selection) (log enrichment); library NNK3; higher = more nucleation; inactive = no reads after selection. In a few lines: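 After 24 hours of induction with 100 μM copper sulfate, psi-negative yeast expressing peptides of 20 random codons fused to Sup35N were grown for 7 days at 30°C on medium lacking adenine and uracil. Input and output plasmid inserts were sequenced with Illumina, and sequences with under 100 input reads were discarded. Scores for nucleation are the DiMSum log enrichment of output over input reads, centred on the mode score of non-aggregating sequences.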

± gives the uncertainty stated by the source.

As for FMNKLGDFNLP, the amyloid nucleation score entry was “inactive”.
For the substance RNGDCLWIFR, the amyloid nucleation score was 0.732 ± 0.28.
The same measure for FVKKRLVKGKNFFIELFLMC: “inactive”.
In the case of RDFRKSIYTCLEYYWHMVVT it was “inactive”.
For YSCVEDSGCVCKNPLVISEF, the amyloid nucleation score entry was “inactive”.
The same measure for EGIGDVCCKTPEYRSFGWMR: -1.13 ± 2.4; for ILRLTCLIAKHTRAVNMDLQ: “inactive”.
In the case of VEFSPMFHQGVTM it was “inactive”; in that of SSCNLIWCFSSDAILKPLMQ, 1.38 ± 0.093; in that of LEGQMTVRRDFTRFDW, “inactive”.
As for GVKCPKKTNRQWGIVALMRP, the amyloid nucleation score result was “inactive”.
The same measure for YVELSTYCSRWLVLIVDYLE: “inactive”.
In the case of CNNRVVWLKHGSLSREDGVQ, the amyloid nucleation score entry was “inactive”.
Substance LNMKTV returned an amyloid nucleation score of -0.702 ± 1.
On to FNLGRVMFLRSLRWCQGLLV, for which the amyloid nucleation score entry was “inactive”.
In the case of CNYPKFHWLGRSVIKFIDFL it was “inactive”; in that of LYAYVQVIGDQA, “inactive”; in that of INGSGSAIYGRITRGLNGDS, “inactive”.
KILRRNTWNMFPAALCGVSF returned an amyloid nucleation score of 0.997 ± 0.21.
For YCKEGLQQDPIFSKFYEHLG, the amyloid nucleation score entry is “inactive”.
In the case of VNPCLYGPYSSNNCSRSYFV it was “inactive”; in that of YSVLLLLDSYGAWSGAGGE, “inactive”; in that of GFSLKGLNSNDTRSLSHKLG, “inactive”.
With FVCCYVYAQQLRRRYIFNLS, the amyloid nucleation score result is “inactive”.
The same measure for VKRGLVCETSLCRYFFLFGQ: 1.35 ± 0.089; for QRSEV: “inactive”.
In the case of AVCPSISTLSCGQ it was -0.055 ± 0.82.
In the case of FVSWWNRSYVCVWIKLMNWR it was “inactive”.
Take FWLGDM: the amyloid nucleation score entry was “inactive”.
As to VFCHTAIL, the amyloid nucleation score result is “inactive”.
The same measure for RKPHMTL: “inactive”.
For IVDAIILWCSKILIWVGIGQ, the amyloid nucleation score entry is “inactive”.
In the case of MGLIERLWWSTPIKF it was “inactive”; in that of ADKIRIRFY, “inactive”.
The same measure for RSMTWFSQDYVSVHRVL: “inactive”; for LLRGVRKE: “inactive”.
The same measure for NIRIDMMWSLSCHKLG: “inactive”; for LLYENTVSSRGTVLRDHLS: 0.456 ± 0.36.
Consider RLFLGVGCMS, for which the amyloid nucleation score entry is “inactive”.
For LILIRAVSG, the amyloid nucleation score result was “inactive”.
In the case of SNQTWMVNET it was “inactive”.
The same measure for PLFNRYVSF: “inactive”; for YIYEEASK: “inactive”.
In the case of FYCFIPGMSVMAPFVTSYYY it was 1.91 ± 0.053.
In turn, LIISLGTVVIDVQSKKSLLL had an amyloid nucleation score of 2.29 ± 0.079.
In the case of HSSVSMGLVGGSTE it was “inactive”; in that of RKFDPSISGSCWNVGISCVV, “inactive”; in that of FTRNCSKWIVG, “inactive”.
In the case of ELVVLYLYRRASSGWS it was “inactive”; in that of TYFRHYRKRSRSTSDLYLRL, “inactive”.
In the case of YDVSRDATDCRVYCCPFSRS it was 1.23 ± 0.1.
Take ILSLPRRNYSKTVFNRLKAE: the amyloid nucleation score entry was “inactive”.
In the case of KAKPVSKCA it was “inactive”; in that of IALLWQAHLWRHDWKFYFDS, “inactive”; in that of WLHINGVLYIFSMAGSALSV, “inactive”.
Substance SGMLKLSWVVW came in with an amyloid nucleation score of 0.667 ± 0.22.
The same measure for RYDYFLFLIFSFLCTVDPMV: -0.211 ± 0.31; for MMVVNRGDHQDGGEAYEVV: “inactive”; for RRPLVWKFFQNLGTMN: “inactive”.
In the case of LGASRGMFVKNLLIMASHSR it was “inactive”; in that of QGNWHYWCKDVRKLSLPKEL, “inactive”; in that of NVYMHAMCRWDVQGTAR, “inactive”.
The same measure for HVIHGCNSIFYSVS: “inactive”; for TCNYMSGGFALRFTISYGGA: “inactive”; for YGRLPSWIKWFFLVVYIRVL: “inactive”.
For the substance FLRFSAVDVSNGGNSMLL, the amyloid nucleation score entry was “inactive”.
Consider TTLVGHASPVKAMTGTFTWH, for which the amyloid nucleation score entry is “inactive”.
In the case of NCTVYLGTFCCSQGFAGLPP it was 3.07 ± 0.053.
The same measure for YDCKLSRAVLRGV: “inactive”.
As to ACCRSNDYDSYTPFDVVNHW, the amyloid nucleation score entry was “inactive”.
The same measure for CLTLMALAKGFGVWGG: -0.176 ± 0.92; for CRKLYNISFLVLLTFFSHLF: “inactive”.
The same measure for EAGSPALRR: 0.078 ± 0.7; for SNARKGLMNVLRRYWLCDWT: -0.412 ± 0.88.
The same measure for GMSLECNFIYL: 1.84 ± 0.1.
Turning to LVFFFLWHSHENFNHDLVSK, the amyloid nucleation score result was “inactive”.
In the case of LDSIPSMSTVLLMSASGCND, the amyloid nucleation score result was “inactive”.
In the case of PSSFASP it was “inactive”.
The same measure for DCWHLRQLWGVMSCQ: 0.48 ± 0.42; for GWVFTMDFTSYLECTDMGRS: “inactive”; for FSLLPKCLSLSGDRNGFKMC: “inactive”.
In the case of RWNSISI it was “inactive”.
As for EWCSMYILSC, the amyloid nucleation score entry was “inactive”.
The same measure for KGSTLLSNIARMVVTCKARP: “inactive”; for QGGNAISRYKWDCIR: “inactive”.
YVSSAILRNRVLCHCYFTML: the amyloid nucleation score entry is “inactive”.
In the case of DFRHSMEASWKIWIRAGTRE it was “inactive”.
Take IVREVGTA: the amyloid nucleation score result was “inactive”.
In the case of PCPLRTTVW it was “inactive”.
In the case of LQILLSR it was “inactive”; in that of QVSFM, “inactive”; in that of RNLRYICRFALGGVARLWCG, 0.197 ± 0.55.
The same measure for NKVVAKHGFGVRSFKIWGLD: “inactive”; for RRSLHCIDCSRFPLIFHCTV: “inactive”.
With RSCSLWVY, the amyloid nucleation score entry was “inactive”.
In the case of GVGLIE it was “inactive”; in that of IVGNLRDKDNYIVGRLEDSD, “inactive”.
The same measure for LKWNTTSVNVVYLSFIIGRQ: 2.15 ± 0.086; for LKLMKNDCRFSNGNLVVVRV: “inactive”; for EVKDAWIMSYSLNYWQRLYM: “inactive”.
The same measure for FRHFRSLLSVFLVYRFQLSV: “inactive”; for FSVGEFCR: “inactive”; for FYPKLPTLSVQDVGHRKPST: “inactive”.
Consider IQGVAWVQKAWFSRKAGVQI, for which the amyloid nucleation score result is “inactive”.
In the case of VCVKYAMTPVWSAGAARFHK it was “inactive”; in that of RYSLCCYGGFFRYSRDFMRR, 1.14 ± 0.14; in that of SCVWFSL, “inactive”.
In the case of LYSHSGSFSIGSQFNFVWFT it was 1.44 ± 0.14; in that of TNDLYEFVPRAVILTSICLL, “inactive”.
The same measure for DSLILWHGDANCSRLGYRGH: “inactive”; for VDVDCYLLSKNM: “inactive”; for STCMFVGSDSRVRVRYIDIC: “inactive”.
Consider YQYCSISKHVFEWYGTSWMG, for which the amyloid nucleation score entry was “inactive”.
The same measure for IEFFEYVCVMFFCC: “inactive”.
As to HRTLVMGP, the amyloid nucleation score result is “inactive”.
Consider KRISDRIFCFCLKHGVGLFG, for which the amyloid nucleation score entry was “inactive”.
The same measure for QLEYNYCDKLVT: “inactive”; for PGRYFMHLLELV: “inactive”; for EFGPVTPGSEPQALLCTRRL: “inactive”.
Regarding VGETWNSVACVLTQLWLTCE, the amyloid nucleation score was -0.014 ± 0.26.
The same measure for MSSLDARIMSHYVYMVIDPV: “inactive”; for PAMVCNPTQATRGKSRMVPL: “inactive”.
The same measure for ILRFMYAVHDISFFYLIVCF: “inactive”; for SIIDKE: -0.605 ± 0.98; for RSRGWDWFEVSIIVRCSMWD: “inactive”.
In the case of RGKLFLSLLIVYFTLFLSVM it was “inactive”.
In the case of NYLSASVCRRRDFI, the amyloid nucleation score entry is “inactive”.
The same measure for ECTDFYGTGTFCFGSWRLSY: 1.76 ± 0.064; for LWIDLWFILYWPGSIDCGEC: -0.288 ± 0.45.
The same measure for GLMALNVMSVNTTEYCRAYW: 0.56 ± 0.12.
In the case of FTGKRSALGCIGVCILF it was -0.598 ± 1.2; in that of VLGYDGAGKVVIFDVNLAGL, 1.87 ± 0.083.
